Experiments:
[1] = system: Notch2; test: Notch inhibition, U2OS luciferase reporter on WT DLL4 coated plates; assay type: cell-based, human; details: plates coated with 50 nM WT DLL4, 10-fold dilutions from 3,000 nM
Method: (§1) For U2OS cells, on day one, 5×10^5 cells were plated in 6-well tissue culture plates. On day two, U2OS cells were transfected as described above. On day three, 96-well plates (Coastar) were coated with streptavidin and biotinylated WT DLL4 at 50 nM as described above. Next, U2OS reporter cells were detached with trypsin-EDTA and diluted at 200,000 cells/mL in DMEM media. Ten-fold serial dilutions of soluble DLL4 variants starting at 6,000 nM were prepared in DPBS and used to pre-block reports cells following the same protocol described above. Two-hundred microliters of inhibition reactions were added to 96-well plates pre-coated with biotinylated WT DLL4 ligand at 50 nM, and assay plates incubated for 24 hours at 37° C. and 5% CO2. On day fourth, luciferase signals were measured with Dual-Glo luciferase assay system (Promega) using a GloMax luminometer (Promega). Doxycycline at 2 μg/mL was maintained to […]. A ratio between firefly and Renilla luciferase was calculated, and Notch activation normalized to wells where inhibitors were non-added. The data represent fold-change of Notch activation as percentage, relative to Notch activation in the absence of inhibitors±s.d. of three independent biological replicates.

[2] = system: Notch3; test: as above; assay type: cell-based, human; details: plates coated with 50 nM WT DLL4, 10-fold dilutions from 3,000 nM
Method: as §1

[3] = system: Notch1; test: as above; assay type: cell-based, human; details: plates coated with 50 nM WT DLL4, 10-fold dilutions from 3,000 nM
Method: as §1

[4] = target: T1, Notch4 (7-12) (Homo sapiens, UniProt Q99466); test: SPR determination of equilibrium dissociation constants; assay type: binding
T1 construct: hNotch4 (EGF7-12, residues 276-511); gp67 signal peptide (N); made in house; host or cells: HiFive Trichoplusia ni insect cells (baculovirus)
T1 sequence (Q99466 276-511): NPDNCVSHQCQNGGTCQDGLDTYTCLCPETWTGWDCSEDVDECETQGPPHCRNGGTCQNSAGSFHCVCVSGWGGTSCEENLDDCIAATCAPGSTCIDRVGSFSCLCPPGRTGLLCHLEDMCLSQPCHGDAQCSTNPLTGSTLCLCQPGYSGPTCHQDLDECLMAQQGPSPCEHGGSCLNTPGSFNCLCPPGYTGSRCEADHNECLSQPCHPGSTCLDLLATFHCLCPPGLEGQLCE
Method: (§2) Equilibrium dissociation constants were determined by surface plasmon resonance using a Biacore T200 instrument (GE Healthcare). Approximately 100 resonance units (RU) of biotinylated Notch extracellular fragments (Notch1 (EGF6-13), Notch2 (EGF6-13), Notch3 (EGF5-12), Notch4 (7-12), and mouse Notch1 (EGF6-13)) were immobilized on individual flow cells at 5 μl/min using a streptavidin-coated sensor chip (Series S Sensor chip SA, GE Healthcare). Three-fold serial dilutions of recombinant DLL4 proteins (N-EGF5) starting at 50 μM (WT DLL4), 18 μM (DLL4.v2), and 6 μM (DLL4.v1 and Delta^MAX) were flowed over the chip at 25° C. in SPR buffer (20 mM HEPES pH 7.4, 150 mM NaCl, 1 mM calcium chloride, 0.1% BSA supplemented with 0.005% surfactant P20). Association (“on-rate”) and dissociation (“off-rate”) phases were performed at 10 μl/min for 120 seconds and 300 seconds, respectively. The sensor chip was regenerated after each injection with 30-second washes of 2.25M Magnesium Chloride containing 25% Ethylene Glycol at 50 μL/min. Data collection rate was performed at 10 Hz, and curves were reference-subtracted from a flow cell containing 100 RU of a negative control non-related protein (biotinylated mouse RNF43 PA domain). The maximum RU for each experiment was normalized to a value of 100% and plotted as a function of concentration using Prism 9 software (GraphPad). Steady-state binding and kinetic curves were fitted using the Biacore T200 evaluation software to a 1:1 Langmuir model to determine the KD values.

[5] = target: T2, Notch3 (EGF5-12) (Homo sapiens, UniProt Q9UM47); test: as above; assay type: binding
T2 construct: hNotch3 (EGF5-12, residues 197-505); gp67 signal peptide (N); made in house; host or cells: HiFive Trichoplusia ni insect cells (baculovirus)
T2 sequence (Q9UM47 197-505): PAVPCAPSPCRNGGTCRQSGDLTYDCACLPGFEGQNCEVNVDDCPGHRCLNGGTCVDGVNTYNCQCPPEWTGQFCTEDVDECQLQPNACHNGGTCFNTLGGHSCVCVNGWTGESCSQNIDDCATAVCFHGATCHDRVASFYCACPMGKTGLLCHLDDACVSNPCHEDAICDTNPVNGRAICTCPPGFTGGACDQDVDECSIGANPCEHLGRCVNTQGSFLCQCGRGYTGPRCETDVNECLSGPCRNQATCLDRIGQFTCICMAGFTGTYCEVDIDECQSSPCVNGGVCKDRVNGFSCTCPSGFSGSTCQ
Method: as §2

[6] = target: T3, mouse Notch1 (EGF6-13) (Mus musculus, UniProt Q01705); test: as above; assay type: binding; details: mNotch1 EGF6-13; read-out: dissociation constant (KD)
T3 construct: mouse Notch1 (EGF6-13, residues 221-526); gp67 signal peptide (N); made in house; host or cells: HiFive Trichoplusia ni insect cells (baculovirus)
T3 sequence (Q01705 221-526): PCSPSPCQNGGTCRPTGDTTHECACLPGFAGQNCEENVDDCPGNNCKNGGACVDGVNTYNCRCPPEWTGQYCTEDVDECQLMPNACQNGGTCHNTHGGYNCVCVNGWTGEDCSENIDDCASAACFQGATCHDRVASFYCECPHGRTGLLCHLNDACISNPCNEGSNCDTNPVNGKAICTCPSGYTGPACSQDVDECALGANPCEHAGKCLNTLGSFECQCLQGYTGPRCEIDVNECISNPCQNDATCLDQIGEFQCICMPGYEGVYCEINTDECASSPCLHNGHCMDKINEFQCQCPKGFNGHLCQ
Method: as §2

[7] = target: T4, Notch2 (EGF6-13) (Homo sapiens, UniProt Q04721); test: as above; assay type: binding
T4 construct: hNotch2 (EGF6-13, residues 221-530); gp67 signal peptide (N); made in house; host or cells: HiFive Trichoplusia ni insect cells (baculovirus)
T4 sequence (Q04721 221-530): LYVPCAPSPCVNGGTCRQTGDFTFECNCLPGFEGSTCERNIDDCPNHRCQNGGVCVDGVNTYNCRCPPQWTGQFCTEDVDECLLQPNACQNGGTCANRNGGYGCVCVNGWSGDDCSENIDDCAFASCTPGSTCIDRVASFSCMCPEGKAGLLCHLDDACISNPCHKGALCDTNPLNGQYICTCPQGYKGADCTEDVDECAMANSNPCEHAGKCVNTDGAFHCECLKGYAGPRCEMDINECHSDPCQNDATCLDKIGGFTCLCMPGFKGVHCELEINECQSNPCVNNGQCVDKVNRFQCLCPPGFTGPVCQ
Method: as §2

[8] = SPR, 25° C., ligand N-EGF5, read-out: dissociation constant (KD)

Chain of Notch1 (P46531 19-1664 limits assumed): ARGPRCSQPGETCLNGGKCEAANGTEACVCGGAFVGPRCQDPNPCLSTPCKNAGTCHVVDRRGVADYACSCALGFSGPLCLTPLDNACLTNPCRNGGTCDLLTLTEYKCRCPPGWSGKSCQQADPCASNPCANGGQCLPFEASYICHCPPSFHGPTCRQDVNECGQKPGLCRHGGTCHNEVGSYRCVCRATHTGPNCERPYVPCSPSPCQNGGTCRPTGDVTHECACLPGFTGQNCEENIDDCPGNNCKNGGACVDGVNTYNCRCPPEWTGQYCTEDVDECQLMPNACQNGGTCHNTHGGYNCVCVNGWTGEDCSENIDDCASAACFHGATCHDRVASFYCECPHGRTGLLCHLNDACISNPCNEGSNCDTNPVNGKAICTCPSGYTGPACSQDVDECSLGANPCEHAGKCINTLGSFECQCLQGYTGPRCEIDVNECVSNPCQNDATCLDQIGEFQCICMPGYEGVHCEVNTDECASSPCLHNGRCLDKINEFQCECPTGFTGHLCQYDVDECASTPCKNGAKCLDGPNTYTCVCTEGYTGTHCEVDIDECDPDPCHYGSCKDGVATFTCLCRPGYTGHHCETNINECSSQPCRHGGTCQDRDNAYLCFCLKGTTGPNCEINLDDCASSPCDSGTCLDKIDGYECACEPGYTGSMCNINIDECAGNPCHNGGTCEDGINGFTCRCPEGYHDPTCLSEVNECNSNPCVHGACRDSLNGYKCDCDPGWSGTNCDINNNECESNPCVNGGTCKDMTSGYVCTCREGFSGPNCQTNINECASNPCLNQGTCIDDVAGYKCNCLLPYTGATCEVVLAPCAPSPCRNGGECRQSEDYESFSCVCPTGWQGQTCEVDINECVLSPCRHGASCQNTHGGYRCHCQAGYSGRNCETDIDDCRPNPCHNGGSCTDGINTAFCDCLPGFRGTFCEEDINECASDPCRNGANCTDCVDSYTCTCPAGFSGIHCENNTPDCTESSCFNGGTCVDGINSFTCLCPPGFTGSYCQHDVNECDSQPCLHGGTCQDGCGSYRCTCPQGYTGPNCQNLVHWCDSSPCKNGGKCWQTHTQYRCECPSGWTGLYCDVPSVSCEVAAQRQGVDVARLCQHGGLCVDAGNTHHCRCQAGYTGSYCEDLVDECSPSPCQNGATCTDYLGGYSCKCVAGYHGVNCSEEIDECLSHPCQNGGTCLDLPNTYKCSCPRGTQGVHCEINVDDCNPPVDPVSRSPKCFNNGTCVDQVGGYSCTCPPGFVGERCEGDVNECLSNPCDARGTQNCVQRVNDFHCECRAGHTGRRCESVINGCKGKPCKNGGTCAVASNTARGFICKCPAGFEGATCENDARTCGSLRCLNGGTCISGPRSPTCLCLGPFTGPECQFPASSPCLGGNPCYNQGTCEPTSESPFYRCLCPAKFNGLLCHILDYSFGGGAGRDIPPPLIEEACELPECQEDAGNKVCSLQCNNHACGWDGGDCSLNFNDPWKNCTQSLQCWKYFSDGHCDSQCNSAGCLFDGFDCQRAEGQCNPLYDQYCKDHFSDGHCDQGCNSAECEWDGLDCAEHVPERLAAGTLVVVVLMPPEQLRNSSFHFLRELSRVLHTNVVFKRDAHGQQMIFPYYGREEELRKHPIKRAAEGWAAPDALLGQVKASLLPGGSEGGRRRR
Chain of Notch1 (P46531 1665-1756 limits assumed): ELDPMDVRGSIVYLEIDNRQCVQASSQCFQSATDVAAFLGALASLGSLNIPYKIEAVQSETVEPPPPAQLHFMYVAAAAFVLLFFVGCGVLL
Chain of Notch2 (Q04721 26-1677 limits assumed): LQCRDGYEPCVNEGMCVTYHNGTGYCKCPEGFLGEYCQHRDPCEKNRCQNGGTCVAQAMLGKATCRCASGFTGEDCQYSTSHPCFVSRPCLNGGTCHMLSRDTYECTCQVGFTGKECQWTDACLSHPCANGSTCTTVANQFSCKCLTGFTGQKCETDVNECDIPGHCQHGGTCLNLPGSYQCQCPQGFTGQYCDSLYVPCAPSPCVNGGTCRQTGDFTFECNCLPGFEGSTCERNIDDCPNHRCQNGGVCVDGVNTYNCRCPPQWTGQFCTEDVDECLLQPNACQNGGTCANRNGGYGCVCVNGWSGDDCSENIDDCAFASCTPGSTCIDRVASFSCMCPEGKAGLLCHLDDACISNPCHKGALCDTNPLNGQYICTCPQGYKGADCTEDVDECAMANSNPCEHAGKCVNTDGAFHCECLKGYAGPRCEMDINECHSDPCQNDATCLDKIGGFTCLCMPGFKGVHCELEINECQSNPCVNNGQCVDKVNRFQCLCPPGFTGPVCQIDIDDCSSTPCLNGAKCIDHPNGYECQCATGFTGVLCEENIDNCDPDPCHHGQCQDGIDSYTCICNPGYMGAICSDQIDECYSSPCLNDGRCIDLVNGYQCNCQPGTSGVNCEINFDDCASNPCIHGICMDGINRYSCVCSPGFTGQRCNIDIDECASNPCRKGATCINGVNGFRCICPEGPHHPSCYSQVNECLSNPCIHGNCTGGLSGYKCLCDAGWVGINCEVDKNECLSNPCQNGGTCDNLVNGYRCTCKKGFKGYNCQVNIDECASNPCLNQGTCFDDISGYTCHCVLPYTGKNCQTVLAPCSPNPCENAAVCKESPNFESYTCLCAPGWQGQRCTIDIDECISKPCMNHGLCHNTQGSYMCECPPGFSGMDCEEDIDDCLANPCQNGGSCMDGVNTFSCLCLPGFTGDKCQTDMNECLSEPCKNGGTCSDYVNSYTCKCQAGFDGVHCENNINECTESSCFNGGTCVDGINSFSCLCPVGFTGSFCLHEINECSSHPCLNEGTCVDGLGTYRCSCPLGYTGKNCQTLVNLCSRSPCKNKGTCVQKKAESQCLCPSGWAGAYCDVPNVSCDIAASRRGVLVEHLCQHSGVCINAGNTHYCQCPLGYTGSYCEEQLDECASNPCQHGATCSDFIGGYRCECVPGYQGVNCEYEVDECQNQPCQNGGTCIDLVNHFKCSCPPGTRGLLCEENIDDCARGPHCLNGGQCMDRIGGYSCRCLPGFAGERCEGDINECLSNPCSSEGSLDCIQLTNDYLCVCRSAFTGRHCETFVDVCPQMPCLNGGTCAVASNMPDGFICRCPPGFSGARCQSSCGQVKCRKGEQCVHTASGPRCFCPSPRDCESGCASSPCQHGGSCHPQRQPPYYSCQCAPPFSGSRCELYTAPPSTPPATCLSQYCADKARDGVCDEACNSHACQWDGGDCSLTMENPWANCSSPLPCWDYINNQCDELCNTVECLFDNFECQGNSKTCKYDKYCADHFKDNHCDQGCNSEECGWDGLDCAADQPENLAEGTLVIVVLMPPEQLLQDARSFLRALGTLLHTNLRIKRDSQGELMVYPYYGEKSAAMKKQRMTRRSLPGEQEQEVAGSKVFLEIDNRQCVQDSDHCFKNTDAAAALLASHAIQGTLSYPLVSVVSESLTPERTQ

B1: Delta^MAX: engineered human DLL4 consensus variant with 10 mutations combining DLL4.v1 and DLL4.v2 mutations; sequence matches SEQ ID NO: 4/10 (protein)
chain: SSVFQLQLQEFINERGVLASGRPCEPGCRTFFRVCLKHFQAVVSPGPCTFGTVSTPVLGTNSFAVRDDSSGGGRNPLQLPLNFTWPGTFSLIIEAWHAPGDDLRPEALPPDALISKFAIQGSLAVGQNWLLDEQTSTLTRLRYSYRVICSDNYYGDNCSRLCKKRNDYFGHYVCQPDGNPSCLPGWTGEYCQQPICLSGCHEQNGYCSKPAECLCRPGWQGRLCNECIPHPGCRHGTCSTPWQCLCDEGWGGLYCDQDLNYCTHHSPCKNGATCRNSGPRSYTCTCRPGYTGVDCELELSECDSNPCRNGGSCKDQEDGYHCLCPPGYYGLHCEHSTLSCADSPCFNGGSCRERNQGANYACECPPNFTGSNCE
**Q.** With B1 as the molecule, how does the “effect of soluble competitor on Notch2 signaling” value [1] read?
**A.** dose-dependent decreases

**Q.** What about the “effect of soluble competitor on Notch3 signaling” value [2] of the same molecule?
**A.** dose-dependent decreases

**Q.** What about the “effect of soluble competitor on Notch1 signaling” value [3] of the same molecule?
**A.** dose-dependent decreases

**Q.** And the “enhancement of affinity compared to WT DLL4” value [4]?
**A.** 532 fold

**Q.** What about the “enhancement of affinity compared to WT DLL4” value ([5]; Notch3) of the same molecule?
**A.** 591 fold

**Q.** And the Kd [5, 8]?
**A.** 49 nM

**Q.** What about the Kd [6] of the same molecule?
**A.** 25 nM

**Q.** What about the “enhancement of affinity compared to WT DLL4” value ([7]; Notch2) of the same molecule?
**A.** 670 fold

**Q.** What about the Kd [7, 8] of the same molecule?
**A.** 54 nM
